Measurements taken from the nanobody polyreactivity screen of Harvey et al. (2022).

Assay: yeast display, Sf9 membrane polyspecificity reagent, FACS + sequencing; frameworks hold sequencing errors
Outline: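 In a synthetic yeast display library (Saccharomyces cerevisiae BJ5465), nanobody expression was induced with galactose for 36–48 hours. FACS gates were set low and high (top ~1%) using anti-HA fluorescence for expression and streptavidin fluorescence for binding of the Sf9 membrane reagent. Each polyreactivity label is drawn from the gate of origin.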

Row | Sequence | polyreactivity (PSR sort gate)
1 | QVQLVESGGGLFQAGGSLRISCAASGSTFRGYVMGWYRQAPGKERELVAAISRSGTSTYYADSVKGRFTISRDNAKNTVYLQMNSLKPEDTAVYYCAAQLYGHGEDYWGQGTQVTVSS | high polyreactivity
2 | QVQLVESGGGLFQAGGSLRLICAASGNIFKSYTMGWYRQAPGKERELVAAITSGGRTNYADSVKGRFTISRDNAKNTVYLQMNSLKPEDTAVYYCNAYKVFWVSIRYKFDYWGQGTQVTVSS | high polyreactivity
3 | QVQLVESGGGLFQAGGSLRLICAASGSTFLNNAMGWYRQAPGKERELVAAISYRGGSTYYADSVKGRFTISRDNAKNTVYLQMNSLKPEDTAVYYCAAEVTRFWWRSPYDYNYWGQGTQVTVSS | high polyreactivity
4 | QVQLVESGGGLFQAGGSLRLSCAASATTFGVNAMGLYRQATGKERELVAAITVSAGSTYYADSVKGRFTISRDNAQNTVYLQMNSMKPEDSAVYYCAAEEREWRTDIYDYWGQGTQVTVSS | low polyreactivity
5 | QVQLVESGGGLFQAGGSLRLSCAASGFIFAWYAMGWSRQAPGKERELVATISSSGARTYYADSVKGRFTISRDNAKNTVYLQLNRLKPEDTAVYYCASVYSTLGVGYYYWGQGTQVTVSS | high polyreactivity
6 | QVQLVESGGGLFQAGGSLRLSCAASGFIFRPYGMGWYRQAPGKERELVAAISWSGDRTYYADSVKGRFTISRDNAKNTVYLQMNSLKPEDTAVYYCAADGVTRDYDYWGQGNQVTVSS | low polyreactivity
7 | QVQLVESGGGLFQAGGSLRLSCAASGFIFYDNAIGWYRQAPGKERELVASISVSGGSTYYADSVKGRFTISRDKAKNTVYLHMNSLKAEDTAVYYCAASYRDGHIRHDYWGQGTQVTVSS | low polyreactivity
8 | QVQLVESGGGLFQAGGSLRLSCAASGFISSGNTMAWYRQAPGKERELVAAISGSGGRTYYADSVKGRFTISRDNAKNTVYLQMNSLKPEDTAVYYCATPLQQLYGYWGQGTQVTVSS | low polyreactivity
9 | QVQLVESGGGLFQAGGSLRLSCAASGFIVRRYAMGWYRQAPGKEREMVAAITSGGGRTYYADSVKGRYTISRDNAKYTVNLEMISLKPEDTGVYDCARVQRCDYDYWGQGTQVTVSS | high polyreactivity
10 | QVQLVESGGGLFQAGGSLRLSCAASGFTFPAYNMGWYRQAPRKEMEMVAAITSSGGNTYYADSVKGRFTISRHNAKNTVYLQMNSLKPEDTAVYYWATFSVRWPSNDHVRYDYWGHGTQVTVSS | low polyreactivity
11 | QVQLVESGGGLFQAGGSLRLSCAASGIIFVRNAMGWSRQAPGKERELVAAITPSGGSTYYADSVKGRFTISRDNAKNTVYLQMNSLKPEDTAVYYCAAPYRYRSLYDNWGQGSQVTVSS | high polyreactivity
12 | QVQLVESGGGLFQAGGSLRLSCAASGITFAQYAMGWYRQAPGKDRELVAVISSGGSTNYADSVKGRFTISRDNAKNTVYLQMNSMKPEDTAVYYCNADEAAPVYSYYYWGQGTQVTVSS | low polyreactivity
13 | QVQLVESGGGLFQAGGSLRLSCAASGITFTRYAMGWYRQAPGKEREFVAAIRRSGGNTYYADSVKGRFTISRDNAKNTVYLQMNSLNPEDTAVYYCAASLRKTSPTRLVDYWGQGTQVTVSS | low polyreactivity
14 | QVQLVESGGGLFQAGGSLRLSCAASGITLAYNAMGWYRQAPGKEREFVAAIDVSGGRTYYADSVKVRFTISRDKSKNTVNLQMNSLNPEDTAVYYCAADVAEFSVGYWQDYDYWGQGTQVTVSS | low polyreactivity
15 | QVQLVESGGGLFQAGGSLRLSCAASGLTFYVYAMGWYRQAPGKERELVAAITQNGGTTYYADSVKGRFTISRDNAKNTVYLQMNSLKPEDTAVYYCAAGNRSLGGRLYRYYYWGQGTLVTVSS | high polyreactivity
16 | QVQLVESGGGLFQAGGSLRLSCAASGNIFVDYDMGWYRQAPGKERELDATITGTGDSTTYADSVKGRFTISRDIAKNTVYLQMNSLKPEDTAVYYCNTDLRLVYRTKGFISWGYDYWGQGTQVTVSS | low polyreactivity
17 | QVQLVESGGGLFQAGGSLRLSCAASGRIFSYNNMGWYRQAPGKERELVAAISTSGGSTYYADSVKGRFTLSRDNAKNTVYLQMNSLKPEDTAVYYCNTVWTFRTSTNYDYWGQVTQVTVSS | low polyreactivity
18 | QVQLVESGGGLFQAGGSLRLSCAASGRIYPTYTMGWYRQAPGKERQLVAAINRGGGSTYYADSVKGRFTISRDYAKNTVYLQMICLKPEDTAVYYCNARTYYRSYGYDYWGQGTQVTVSS | low polyreactivity
19 | QVQLVESGGGLFQAGGSLRLSCAASGRTFQVNAMAWYRHAPGKERELVAAISASDGSTYADSVKGRFTISRDNAKNTVYLQMNSLKPEDTAVYYCNKADYGGHRTSEQVGWVYLYDYWGQGTQVTVSS | low polyreactivity
20 | QVQLVESGGGLFQAGGSLRLSCAASGRTFVKYDMGWYRHAPGKERELVAAISRRGGSTYYADSVKGRFTISRDNAKNTVYLQMNSLKPEDTAVYYCNAVHPKDVDSYRDRDYWGQGTQVTVSS | high polyreactivity
21 | QVQLVESGGGLFQAGGSLRLSCAASGSIFTKYAMGWYRQAPGKERELVAAISQGGASTRYADSVKGRFTISRDNAKKTVYLQMNSLKPEDTAVYYCAAKSRHFWMDYWGQATQVTVSS | high polyreactivity
22 | QVQLVESGGGLFQAGGSLRLSCAASGSIFWPNTMGWYRQAPGKERELVATISSGGDTSYADSVKGRFTISRDNEKNTVYLQMNSLKPEDTAVYYLAKSITVDDVHPRALTYNYWGQGTQVTVSS | low polyreactivity

Row | Sequence | polyreactivity (PSR sort gate)
23 | QVQLVESGGGLFQAGGSLRLSCAASGSTFGWYGMGWYRHAPGKERELVAAISLSDGGTYYADSVKGRFTISRDNAKNTVYLQMNSLKPEDTAVYYCAADYYDSGWYGYWGQGTQVTVSS | high polyreactivity
24 | QVQLVESGGGLFQAGGSLRLSCAASGSTFHYNNMGWYRQAPGKERELVAAISWLGDPTYYADSVKGRFTISRDNAKNTVYLQMNSLKPEDTSVYFCNAVRLSRYRPNPFGYGHWGQGTQVTVSS | high polyreactivity
25 | QVQLVESGGGLFQAGGSLRLSCAASGSTFVKYAMGRSRPAPAKERELVAAINRSGASTYYADSVKGRFTISRDNATNTVNLQMISLKPEDTAVYYCAARFSWLGYYWGQGTQETVSS | high polyreactivity
26 | QVQLVESGGGLFQAGGSLRLSCAASGSTLGSNAMGWYRQAPGKERELVAAITWSGGTTYYADSLKGRFTISRDNAKNTVYLQMNSLKPEDTAVYYCAPGQSVIYRYEFWGQGTQVTVSS | low polyreactivity
27 | QVQLVESGGGLFQAGGSLRLSCAASGSTLRDYVMGWYRQAPGKERELVAAISWTGDRTYYADSVKGRFTISRDNAKNTVYLQMNSLKPEDTAVYYCNAVYHVTRQGNLDSWGQGTQVTVSS | low polyreactivity
28 | QVQLVESGGGLFQAGGSLRLSCAASVITFSQYVMGWYRQAPGKERELVAAISYRGGTTYYADSVKGRFTISRDNAKNTVYLQMISLKPEDTAVYYCATLPQRQYSTRDYWGQGTQVTVSA | high polyreactivity
29 | QVQLVESGGGLFQAGGSLRLSCAPSGFTFSWYDMGWYRQAPGKERELVAAISLSGDRTYYADSVKGRFTISRDNAKNTVYLQMNSLKPEDTAVYYCAADERVDQCWIRMDYWGQGTQVTVSS | low polyreactivity
30 | QVQLVESGGGLFQAGGSLRLSCAPSGIFRYYVMGWYIQAPGKERELVAAISWGGGSTYYADSVKGRFTISRDNPKNTVYLQMNSLKPEDTAVYYCAARDLRKLYSRYPYYYWGQGTQVTVSS | high polyreactivity
31 | QVQLVESGGGLFQAGGSLRLSCAPSGNNFYGNDMGWYRQAPGKERDLVAAISRGGSTYYADSVKGRFTSSRDNAMNTVYLQMNSLKPEDSEVFYCAADYAYTTISWDDYWGQGTLVTVSS | low polyreactivity
32 | QVQLVESGGGLFQAGGSLRLSCASSGFIFVRYAMGWYIQAPGKERELVAGINSGGSTSYADSVKGRFTISRDNAKNSVYLQMNSLKPEDTAVYYCAAAKFRRGTRYYYCGQGTQVTVSS | high polyreactivity
33 | QVQLVESGGGLFQAGGSLRLSCDASGRNFSGNAMGMYRQAPGKERELVAAITWSGSSTFYADSVKGLFTISRDYAKNTVYFQMNSLKPEDTAVYYCAVDSSSPVRPHSDEDYWGQGTQVTVSS | low polyreactivity
34 | QVQLVESGGGLFQAGGSLRLSSAASGSIFHPYAMGWYRQAPGKERELVAAISSSTGRTYYADYVKGRFTISRDNAKNTVYLQMNSLKPEDTAVYYCAARKKYSEFDYWGQGTQVTVSS | high polyreactivity
35 | QVQLVESGGGLFQAGGSLRLTCAASGSTISDYAIGWYRQAPGKERELVAAISTRGGSTYYADSVKGRFTISRDNAKNTVYLQMNSLKPEDTAVYYCAKGGYVPKLEYWGQGTQVTVSS | high polyreactivity
36 | QVQLVESGGGLFQAGRSLRLSCAASGITFGYYGMGWYRQAPVKERELVATISQRGGSTYYAVSVKGRFTISRDNAKNTVYLQMNSLKPEDTAFYYSNADAYRYYDYDLLFHYDYWGQGTQVTVSS | low polyreactivity
37 | QVQLVESGGGLFQEGGSLRLSCAASGIISKYYAMGWYRQAPGKERELVAAITRSGTSTYYADSVKGRFTISRDNAKNSVYLQMNSLKPEDTAVYYCAAVSGGRTPRYDYWGQGTQVTVSS | high polyreactivity
38 | QVQLVESGGGLFQEGGSLRLSCAASGRIFSYYAMGWYRQAPGKERELVAGISSGGRTNYADSVKGRFTISRDNAKNTVYLQMNSLKPEDTAVYYCIARSFSLYWAYNYWGQGTQVTVSL | high polyreactivity
39 | QVQLVESGGGLFQEGGSLRLSCAASGSIFSYYAMGWYRQAPGKERELVAAISTYGGRTYYADSVKGRFTISRDNAKNTVYLQMNSLKPEDTAVYYCAGPVRWKNYDYWGQGTPVTVSS | high polyreactivity
40 | QVQLVESGGGLFQTGGSLRLSRAASGRTFRYYVMGWYRQAPWKESELVAAISWSGGRTNYADSVKGRFTISRDNAKNTVYLQMNCLKPEDTSVYYCIAAGPALRRYDYWGQGTQVTVSS | high polyreactivity
41 | QVQLVESGGGLGQAGGSLGLSCAASGRTFYVNAMGWYRQAPGKERELVAAISWSGGSTYYADSVKGRFTISRDNAKNTVYLPINSLNPEDTAVYYCAAEDIEDYEYWGQGTQVTVSS | low polyreactivity
42 | QVQLVESGGGLGQAGGSLRLICAASGSIFYSNAMGWYRQATGKERELVAAISWNGGRTYYADSVKGRFTISRDTAKNTVYLQMNSLKPEDTAVYFWAAKYRNRYDFWGQGTQVTVSS | low polyreactivity
43 | QVQLVESGGGLGQAGGSLRLICAASGSTFRHYAMGWYRPAPRKERELVAVISWGGTSTYYADSVKGRFTISRDNAKNTVYLQMNSLKPEDTAVYYCNKAYFPIFKGYEMYYWGQGTQVTVSS | low polyreactivity
